Literature values in publication PMC5520056, “Cryo-EM structures of the ATP-bound Vps4^E233Q hexamer and its complex with Vta1 at near-atomic resolution” (Nature Communications, 2017).

Biological target: Vta1 VSL (Saccharomyces cerevisiae) (UniProt Q06263)
Sequence (Q06263 280-330): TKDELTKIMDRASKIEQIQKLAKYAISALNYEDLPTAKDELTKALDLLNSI

Sequence of Vps4 β-domain (P52917 351-397): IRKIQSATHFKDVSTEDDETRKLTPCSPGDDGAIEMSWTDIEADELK

Vps4 β-domain (from UniProt P52917)
Kd: 85 µM
